The source of these data is PMC5910026 (Biochemistry, 2018).

This data set concerns the molecule itself. Description: AUC.

B1: MxiN (recombinant, from pET15b) (natural protein)
chain: MKVCNMQKGTLPVSRHHAYDGVVIKRIEKELCKTIKDRDTESKKKAICVIKDATKKAESLRIDAVCDGYQIGIQTAFEHIIDYICEWKLKQNENRRNIEDYITSLLSENLHDERIISTLLEQWLSSLRNTVTELKVVLPKCNLALRKKLELDLHKYRSDVKIILKYSEGNNYIFCSGNQVVEFSPQDVISGVKIELAEKLTKNDKKYFKELAHKKLRQIAEDLLKENPVND
Broadly, the stoichiometry N is a count of units in the complex or per binding partner. For B1, the “stoichiometry N” value was 2.
